# According to patent US20230312753A1 (IMMUNORIZON, published 2023):
# T1: 5T4 on cells (NCI-H226 endogenous; CHO over-expressing 5T4) (UniProt Q13641 32-420, limits assumed)
# T1 construct: whole, on cells
# T1 sequence (looked up): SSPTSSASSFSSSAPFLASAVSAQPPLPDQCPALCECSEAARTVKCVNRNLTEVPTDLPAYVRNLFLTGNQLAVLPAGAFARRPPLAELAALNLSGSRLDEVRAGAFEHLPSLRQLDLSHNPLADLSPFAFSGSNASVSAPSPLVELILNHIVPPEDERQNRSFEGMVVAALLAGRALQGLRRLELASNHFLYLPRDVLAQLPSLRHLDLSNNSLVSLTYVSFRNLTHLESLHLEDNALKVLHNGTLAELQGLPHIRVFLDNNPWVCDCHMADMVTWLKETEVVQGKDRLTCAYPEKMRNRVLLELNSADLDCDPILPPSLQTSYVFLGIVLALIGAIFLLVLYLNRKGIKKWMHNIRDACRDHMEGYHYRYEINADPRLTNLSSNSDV
# How the values were obtained:
# [1] = molecular target: T2, hCD3epsilon-His (recombinant human CD3 epsilon) (human, UniProt P07766 23-126); experiment: ELISA on coated hCD3epsilon-His (FIG. 43A)
# T2 construct: Bought protein; also called recombinant hCD3ε protein; human CD3ε
# Experimental: Methods: ELISA binding of Tribody/ProTribody antibody constructs to antigens: Dilute target protein (hCD3epsilon-His (cat # 10977-H08S, supplier Sino Biological); h5T4-His (cat# 19845-H08H, supplier Sino Biological); NKG2A-CD94-ECD-hFc, Lot:20200724002, provided by CP; or NKG2D-ECD-hFc, Lot: 20200413002, provided by CP) into PBS with final concentration of 0.01 µg/mL for hCD3epsilon-His, 0.3 µg/mL for h5T4-His, 1 µg/mL for NKG2A-CD94-ECD-hFc and 0.7 µg/mL for hNKG2D-ECD-hFc respectively and coat 100 µL/well on ELISA plate (cat: 9018, supplier Corning) respectively. Incubate O/N, 4° C. The plates were blocked with 250 µL 1% BSA in PBST for 1 hr at 37° C.Wash 4 times with PBST. All the washes are done using Biotek (Elx 405). All the Tribody set antibodies were diluted to 400 nM and make 4-fold serially dilutions (12 points, including 0 point). Add 100 µL/well diluted antibody constructs solution to plate, incubate for 1 hr at 37° C.Wash 4 times with PBST. Add 100 µL/well anti-human kappa light chain-HRP (1:10000), incubate for 0.5 hr at 37° C. Wash 4 times with PBST. 100 µL/well of TMB substrate was added and incubated at room temperature for 5 min. 100 µL/well of 1N HCl to terminate reaction. Plates were read using ELISA plate reader at 450 nm wavelength (instrunet SpectraMax M5e). […]
# [2] = molecular target: T1, 5T4 on cells (NCI-H226 endogenous; CHO …); experiment: FACS on NCI-H226 cells, endogenous 5T4 (FIG. 45B)
# Experimental: (§1) Suspension cultured cells was harvested directly, and adherent cell were digested using TrypLE Express Enzyme (cat: 12604-013, supplier Life technologies). Centrifuge at 1000 rpm for 5 min and discard the supernatant. Cells are suspended at a concentration of 2×10⁶/mL in FACS buffer (2% FBS in PBS) and add 100 µL/well of cell suspension to the plate (cat #3799, supplier Corning). Centrifuging the plates at 2000 rpm for 5 min and discard the supernatant. Re-suspend the cells in 100 µL/well of Tribody set antibodies (400 nM start, 4-fold dilution, 8 point including 0 point) and incubate the plate for 60 min at 4° C. Centrifuge the plate at 2000 rpm, 4° C. for 5 min and discard supernatant. Then wash the cells 3 times with 170 µL FACS buffer. Re-suspend the cells at 100 µL/well with secondary antibody (goat anti-human Ig Fab-FITC, Cat # 2085-02, Southern biotech) with 1:400 dilution and incubate the plate for 30 min at 4° C. in dark. Centrifuge the plate at 2000 rpm, 4° C. for 5 min and discard supernatant. […] The fluorescence intensity of the staining was measured using flow cytometer (BD, FACSVerse). The geometric mean fluorescence intensity (GMFI; median fluorescence intensity (MFI)) of set antibodies staining was calculated (BD FACSuite software). Dose-response curves were generated and EC50s for thetrispecific variants binding were calculated using GraphPad Prism software.
# [3] = molecular target: T3, human CD3 epsilon on cells (Jurkat T cells, endogenous) (human, UniProt P07766 23-207); experiment: FACS on Jurkat T cells, endogenous hCD3ε (FIG. 45A)
# T3 construct: whole, on cells; On cells CD3 epsilon stands in the TCR/CD3 complex; only the epsilon chain is named as target; also called hCD3ε on Jurkat; CD3ε expressing cells
# Experimental: as §1, with “buffer.” for “buffer. Re-suspend the cells at 100 µL/well with secondary antibody (goat anti-human Ig Fab-FITC, Cat # 2085-02, Southern biotech) with 1:400 dilution and incubate the plate for 30 min at 4° C. in dark. Centrifuge the plate at 2000 rpm, 4° C. for 5 min and discard supernatant.”
# Results: The expressed trispecific constructs were analyzed for their binding to cells expressing endogenous CD3ε, 5T4 and NKG2A/NKG2D.
# [4] = molecular target: T1, 5T4 on cells (NCI-H226 endogenous; CHO …); experiment: FACS on CHO cells over-expressing ectopic 5T4 (FIG. 45D)
# Experimental: Then wash the cells 3 times with 170 µL FACS buffer. Re-suspend the cells at 100 µL/well with secondary antibody (goat anti-human Ig Fab-FITC, Cat # 2085-02, Southern biotech) with 1:400 dilution and incubate the plate for 30 min at 4° C. in dark. Centrifuge the plate at 2000 rpm, 4° C. for 5 min and discard supernatant. Then wash the cells 3 times with FACS buffer and analyze the sample with FACS verse. The fluorescence intensity of the staining was measured using flow cytometer (BD, FACSVerse). The geometric mean fluorescence intensity (GMFI; median fluorescence intensity (MFI)) of set antibodies staining was calculated (BD FACSuite software). Dose-response curves were generated and EC50s for thetrispecific variants binding were calculated using GraphPad Prism software.
# Results: The expressed trispecific constructs were analyzed for their binding to cells expressing endogenous CD3ε, 5T4 and NKG2A/NKG2D. […] (FIG. 45F).
# [5] = molecular target: T4, NKG2A/CD94 on CHO cells (CHOK1-NKG2A-CD94) (human, UniProt P26715 1-233; Q13241 1-179, limits assumed); experiment: competitive FACS receptor-ligand blocking assay on CHOK1-NKG2A-CD94 cells, labelled ligand HLA-E PE (FIG. 49)
# T4 construct: whole, on cells; also called CHO cells over-expressing NKG2A/CD94; CHO cell line over expressing ectopic NKG2A
# T4 sequence (P26715 whole entry, chain 1 of 2): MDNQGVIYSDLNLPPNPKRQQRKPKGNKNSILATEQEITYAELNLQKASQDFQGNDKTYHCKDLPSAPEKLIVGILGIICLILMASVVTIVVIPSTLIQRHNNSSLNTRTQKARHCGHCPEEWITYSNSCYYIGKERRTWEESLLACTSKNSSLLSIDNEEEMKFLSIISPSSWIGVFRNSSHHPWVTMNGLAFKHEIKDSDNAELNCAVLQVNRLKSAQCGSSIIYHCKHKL
# T4 sequence (Q13241 whole entry, chain 2 of 2): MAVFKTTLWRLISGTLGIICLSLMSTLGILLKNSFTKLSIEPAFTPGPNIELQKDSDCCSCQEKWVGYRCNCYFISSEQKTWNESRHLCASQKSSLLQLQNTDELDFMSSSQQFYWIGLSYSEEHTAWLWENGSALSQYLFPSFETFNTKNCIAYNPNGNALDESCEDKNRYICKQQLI
# T2 sequence (P07766 23-126 limits assumed): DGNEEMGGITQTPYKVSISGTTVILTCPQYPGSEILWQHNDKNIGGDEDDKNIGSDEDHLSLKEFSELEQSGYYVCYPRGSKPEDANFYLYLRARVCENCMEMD
# T3 sequence (P07766 23-207): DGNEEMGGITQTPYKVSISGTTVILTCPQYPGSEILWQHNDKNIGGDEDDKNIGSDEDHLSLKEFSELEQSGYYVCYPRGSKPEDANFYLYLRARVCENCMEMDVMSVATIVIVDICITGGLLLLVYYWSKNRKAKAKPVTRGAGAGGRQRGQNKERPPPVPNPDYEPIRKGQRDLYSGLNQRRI
binder,measurement,setting,value
"IM-1062 Tribody (other, Tri-specific antibody (Tribody): anti-CD3 epsilon Fab with an anti-5T4 scFv and an anti-NKG2A scFv, no regulatory domain; also called the Tribody format) heavy: GGSGGSEVQLVESGGGLVQPGGSLRLSCAASGFTFNTYAMNWVRQAPGKGLEWVARIRSKYNNYATYYADSVKDRFTISRDDSKNTLYLQMNSLRAEDTAVYYCVRHGNFGNSYVSWFAYWGQGTMVTVSSASTKGPSVFPLAPSSKSTSGGTAALGCLVKDYFPEPVTVSWNSGALTSGVHTFPAVLQSSGLYSLSSVVTVPSSSLGTQTYICNVNHKPSNTKVDKRVEPKSCPPCGGGGSDIQMTQSPSSLSASVGDRVTITCRASENIYSYLAWYQQKPGKAPKLLIYNAKTLAEGVPSRFSGSGSGTDFTLTISSLQPEDFATYYCQHHYGTPRTFGGGTKVEIKGGGGSGGGGSGGGGSGGGGSQVQLVQSGAEVKKPGASVKVSCKASGYTFTSYWMNWVRQAPGQGLEWMGRIDPYDSETHYAQKLQGRVTMTTDTSTSTAYMELRSLRSDDTAVYYCARGGYDFDVGTLYWFFDVWGQGTTVTVSS light: GGSGGSQAVVTQEPSLTVSPGGTVTLTCRSSTGAVTTSNYANWVQQKPGQAPRGLIGGTNKRAPGTPARFSGSLLGGKAALTLSGVQPEDEAEYYCALWYSNLWVFGGGTKLTVLGQPKAAPSVTLFPPSSEELQANKATLVCLISDFYPGAVTVAWKADSSPVKAGVETTTPSKQSNNKYAASSYLSLTPEQWKSHRSYSCQVTHEGSTVEKTVAPTECPPCSGGGSDIQMTQSPSSLSASVGDRVTITCRASQGISNYLAWFQQKPGKAPKSLIYRANRLQSGVPSRFSGSGSGTDFTLTISSLQPEDVATYYCLQYDDFPWTFGQGTKLEIKGGGGSGGGGSGGGGSGGGGSQVQLVQSGAEVKKPGASVKVSCKASGYTFTSFWMHWVRQAPGQGLEWMGRIDPNRGGTEYNEKAKSRVTMTADKSTSTAYMELSSLRSEDTAVYYCAGGNPYYPMDYWGQGTTVTVSS",EC50,[1],1.69 nM
same,EC50,[2],1.78 nM
same,EC50,[3],1.1 nM
same,EC50,[4],0.9 nM
same,IC50,[5],29 nM
